One block for each substance: values may come before it.
How the values were obtained:
[1] = target: [F13A]myrArf1 (human) (UniProt P84077)
[2] = target: wild-type myristoylated Arf1 (WT myrArf1) (human) (UniProt P84077)
[3] = target: [L8K]myrArf1 (human) (UniProt P84077)
[4] = target: [L8A/F13A]myrArf1 (human) (UniProt P84077)
[5] = target: [L8A]myrArf1 (human) (UniProt P84077)

C50 (nM) of the GAP assay: ASAP1 PZA needed for 50% of maximum hydrolysis of [alpha-32P]GTP bound to myrArf1, LUVs with PIP2, 30°C, 3 min [1]: 2100 nM
C50 (nM) of the GAP assay: ASAP1 PZA needed for 50% of maximum hydrolysis of [alpha-32P]GTP bound to myrArf1, LUVs with PIP2, 30°C, 3 min [2]: 0.79 nM
C50 (nM) of the GAP assay: ASAP1 PZA needed for 50% of maximum hydrolysis of [alpha-32P]GTP bound to myrArf1, LUVs with PIP2, 30°C, 3 min [3]: 0.84 nM
C50 (nM) of the GAP assay: ASAP1 PZA needed for 50% of maximum hydrolysis of [alpha-32P]GTP bound to myrArf1, LUVs with PIP2, 30°C, 3 min [4]: 0.7 nM
C50 (nM) of the GAP assay: ASAP1 PZA needed for 50% of maximum hydrolysis of [alpha-32P]GTP bound to myrArf1, LUVs with PIP2, 30°C, 3 min [5]: 0.84 nM
Substance: PH, Arf GAP, and ankyrin repeats (PZA construct) of ASAP1, His-tagged (domain or fragment)

C50 (nM) of the GAP assay: full-length AGAP1 needed for 50% of maximum hydrolysis of [alpha-32P]GTP bound to myrArf1, LUVs with PIP2, 30°C, 3 min [1]: 340 nM
C50 (nM) of the GAP assay: full-length AGAP1 needed for 50% of maximum hydrolysis of [alpha-32P]GTP bound to myrArf1, LUVs with PIP2, 30°C, 3 min [2]: 1.6 nM
Substance: full-length AGAP1, His-tagged (from UniProt Q9UPQ3 1-857) (enzyme)

C50 (nM) of the GAP assay: ARAP1 PPZA needed for 50% of maximum hydrolysis of [alpha-32P]GTP bound to myrArf1, LUVs with PIP3, 30°C, 3 min [1]: 210 nM
C50 (nM) of the GAP assay: ARAP1 PPZA needed for 50% of maximum hydrolysis of [alpha-32P]GTP bound to myrArf1, LUVs with PIP3, 30°C, 3 min [2]: 0.14 nM
Substance: tandem PH domains, Arf GAP, and ankyrin repeats of ARAP1 (PPZA construct), His-tagged (domain or fragment)

Reference: publication PMC10994351
